Measurements published in patent US20240309109A1 (MorphoSys, published 2024).
Residue numbers refer to the chain shown, from its start.

Tests used:
[1] = target: T1, human CD38 Fc-fusion aa 45-300 (human, UniProt P28907 45-300); experiment: SPR (Biacore), Fab on immobilized CD38 Fc-fusion; 84 taken as the standard deviation (n = 4) by footnote d
T1 construct: Expressed in HEK293 behind a human Vkappa leader, which is left out here; also called CD38-Fc fusion protein; CD38 Fc-Fusion protein

human CD38 on cells [2] = target: T2, human CD38 on cells (human, UniProt P28907 1-300); experiment: FACS Scatchard, IgG1 on Raji cells
T2 construct: The cell that carried CD38 is named under assay in each row; also called CD38 on Raji, RPMI8226, OPM2, CCRF-CEM, human erythrocytes, CD38 CHO-K1 transfectants

[3] = target: T1, human CD38 Fc-fusion aa 45-300; experiment: ELISA on CD38 Fc-fusion protein, IgG format
human CD38 on cells [4] = target: T2, human CD38 on cells; experiment: FACS Scatchard on OPM2 cells, IgG format
human CD38 on cells [5] = target: T2, human CD38 on cells; experiment: FACS Scatchard on CCRF-CEM cells, single measurement
human CD38 on cells [6] = target: T2, human CD38 on cells; experiment: FACS Scatchard on RPMI8226 cells, single measurement
human CD38 on cells [7] = target: T2, human CD38 on cells; experiment: cell-based or functional assay
human CD38 on cells [8] = target: T2, human CD38 on cells; experiment: FACS Scatchard on OPM2 cells, mean from 2 measurements
human CD38 on cells [9] = target: T2, human CD38 on cells; experiment: FACS Scatchard on OPM2 cells, IgG format; * different experiment
human CD38 on cells [10] = target: T2, human CD38 on cells; experiment: FACS Scatchard on RPMI8226 cells
[11] = target: T3, Cynomolgus CD38 on Erythrocytes (cynomolgus monkey, UniProt Q5VAN0); experiment: FACS, Fab format, cynomolgus erythrocytes
T3 construct: native protein on erythrocytes (pellet of the density gradient)

[12] = target: T1, human CD38 Fc-fusion aa 45-300; experiment: SPR (Biacore), Fab format
[13] = target: CD38 (antigen of the Bioveris affinity determination) (Homo sapiens (Human), UniProt P28907 45-300, limits assumed); experiment: Bioveris, Fab format
[14] = target: T4, Cynomolgus CD38 on PBMCs (Lymphocytes) (cynomolgus monkey, UniProt Q5VAN0); experiment: FACS, Fab format, cynomolgus lymphocytes (PBMC fraction)
T4 construct: native protein on lymphocytes of the PBMC fraction of whole blood

[15] = target: T1, human CD38 Fc-fusion aa 45-300; experiment: SPR (Biacore), Fab on immobilized CD38 Fc-fusion; 54 is the standard deviation (n = 3)
human CD38 on cells [16] = target: T2, human CD38 on cells; experiment: FACS Scatchard on RPMI8226 cells; * different experiment
[17] = target: T4, Cynomolgus CD38 on PBMCs (Lymphocytes); experiment: FACS, Fab format, cynomolgus lymphocytes (PBMC fraction); column taken from the order of panel A [Continued]
[18] = target: T3, Cynomolgus CD38 on Erythrocytes; experiment: FACS, Fab format, cynomolgus erythrocytes; column taken from the order of panel A [Continued]
[19] = target: T1, human CD38 Fc-fusion aa 45-300; experiment: SPR (Biacore), Fab on immobilized CD38 Fc-fusion
human CD38 on cells [20] = target: T2, human CD38 on cells; experiment: FACS Scatchard on OPM2 cells, IgG format; * different experiment; OPM2 cells, FACS Scatchard, IgG format; different experiment
human CD38 on cells [21] = target: T2, human CD38 on cells; experiment: FACS Scatchard on OPM2 cells, mean from 2 measurements; OPM2 cells, FACS Scatchard; mean from 2 measurements
human CD38 on cells [22] = target: T2, human CD38 on cells; experiment: FACS Scatchard on CCRF-CEM cells, single measurement; CCRF-CEM cells, FACS Scatchard; single measurement
human CD38 on cells [23] = target: T2, human CD38 on cells; experiment: FACS Scatchard on RPMI8226 cells, single measurement; RPMI8226 cells, FACS Scatchard; single measurement

B1: MOR03128 Fab (Fab, V domains shown)
VH: QVQLKESGPALVKPTQTLTLTCTFSGFSLSSSGMSVSWIRQPPGKALEWLARIYSDDSKSYSTSLKTRLTISKDTSKNQVVLTMTNMDPVDTATYYCARAAHWNGPLFDVWGQGTLVTVSS
VL: DIELTQPPSVSVAPGQTARISCSGDNIGHYYAHWYQQKPGQAPVVVIYDDNDRPSGIPERFSGSNSGNTATLTISGTQAEDEADYYCQAYTGDGGRVFGGGTKLTVLG
notes: Fab format
Question: With B1 as the binder, how does the Kd [1] read?
Answer: The Kd was 117 nM.

B2: MOR03081 IgG1 (antibody, V domains shown)
VH: QVQLVESGGGLVQPGGSLRLSCAASGFTFSSYALHWVRQAPGKGLEWVSSISGLGSTTYYADSVKGRFTISRDNSKNTLYLQMNSLRAEDTAVYYCARYHYEYHYFSSGFDNWGQGTLVTVSS
VL: DIVLTQSPATLSLSPGERATLSCRASQTGSTSYLAWYQQKPGQAPRLLIYDASKRATGVPARFSGSGSGTDFTLTISSLEPEDFATYYCHQYYNVPHTFGQGTKVEIKR
Question: With B2 as the binder, how does the Kd (human CD38 on cells [2]) read?
Answer: Its Kd is 2.5 nM.

B3: MOR03087 IgG1 (antibody, V domains shown)
VH: QVQLVESGGGLVQPGGSLRLSCAASGFTFSSYYMNWVRQAPGKGLEWVSGISGDPSNTYYADSVKGRFTISRDNSKNTLYLQMNSLRAEDTAVYYCARDLPLVYTGFAYWGQGTLVTVSS
VL: DIELTQPPSVSVAPGQTARISCSGDNLRHYYVYWYQQKPGQAPVLVIYGDSKRPSGIPERFSGSNSGNTATLTISGTQAEDEADYYCQTYTGGASLVFGGGTKLTVLG
Question: B3 was tested. Which “ELISA CD38 Fc-Fusion protein (% Reactivity of MOR03087)” value [3] did it give?
Answer: Its value is 100%.

Question: What about the EC50 (human CD38 on cells [4]) of the same binder?
Answer: The EC50 was 5.7 nM.

Question: What about the EC50 (human CD38 on cells [5]) of the same binder?
Answer: The EC50 was 14.7 nM.

Question: What about the Kd (human CD38 on cells [2]) of the same binder?
Answer: The Kd was 5 nM.

Question: And the EC50 (human CD38 on cells [6])?
Answer: Its EC50 is 6.3 nM.

Question: What about the “ADCC RPMI8226 EC50” value (human CD38 on cells [7]) of the same binder?
Answer: Its value is 0.14 nM.

Question: What about the “CDC CHO EC50” value (human CD38 on cells [7]) of the same binder?
Answer: The value was 3.4 nM.

Question: And the EC50 (human CD38 on cells [8])?
Answer: The EC50 was 17.5 nM.

Question: What about the EC50 (human CD38 on cells [9]) of the same binder?
Answer: Its EC50 is 17.4 nM.

B4: MOR06186 IgG (antibody, V domains shown)
VH: B3 VH with G50A, S52N, G53L, D54S, P55G, N57A, T58K
VL: B3 VL
Question: With B4 as the binder, how does the “ELISA CD38 Fc-Fusion protein (% Reactivity of MOR03087)” value [3] read?
Answer: The value was 117%.

Question: And the EC50 (human CD38 on cells [4])?
Answer: The EC50 was 15.6 nM.

B5: MOR06187 IgG (antibody, V domains shown)
VH: B3 VH with G50A, G53S, D54N, P55G, S56D, N57I
VL: B3 VL
Question: B5 was tested. Which “ELISA CD38 Fc-Fusion protein (% Reactivity of MOR03087)” value [3] did it give?
Answer: The value was 145%.

Question: What about the EC50 (human CD38 on cells [4]) of the same binder?
Answer: Its EC50 is 9.37 nM.

B6: MOR06188 IgG (antibody, V domains shown)
VH: B3 VH with G50A, G53T, D54N, P55G, S56W, N57Q
VL: B3 VL
Question: What does the source list for B6?
Answer: ELISA CD38 Fc-Fusion protein (% Reactivity of MOR03087) [3]: 140%; EC50 (human CD38 on cells [4]): 20.1 nM

B7: MOR06185 IgG (antibody, V domains shown)
VH: B3 VH with G50A, G53M, D54N, P55G, S56D, N57Y, T58I, Y59S
VL: B3 VL
Question: Which “ELISA CD38 Fc-Fusion protein (% Reactivity of MOR03087)” value [3] does the source give for B7 here?
Answer: The value was 142%.

Question: And the EC50 (human CD38 on cells [4])?
Answer: The EC50 was 11.5 nM.

B8: MOR06184 IgG (antibody, V domains shown)
VH: B3 VH with G50A, G53H, P55G, S56N, N57V, T58K
VL: B3 VL
Question: B8 was tested. Which “ELISA CD38 Fc-Fusion protein (% Reactivity of MOR03087)” value [3] did it give?
Answer: The value was 150%.

Question: What about the EC50 (human CD38 on cells [4]) of the same binder?
Answer: The EC50 was 10.6 nM.

B9: MOR03087 Fab (Fab, V domains shown)
VH: B3 VH
VL: B3 VL
notes: Fab format
Question: B9 was tested. Which EC50 (human CD38 on cells [10]) did it give?
Answer: The EC50 was 5.37 nM.

Question: Does B9 bind [11]?
Answer: Result: binds

Question: What about the Kd [12] of the same binder?
Answer: The Kd was 5.68 nM.

Question: What about the Kd [13] of the same binder?
Answer: The Kd was 0.0488 nM.

Question: Does B9 bind [14]?
Answer: Result: binds

B10: MOR03102 IgG1 (antibody, V domains shown)
VH: QVQLQESGPGLVKPGETLSLTCTVSGGSISGNYWSWIRQAPGKGLEWIGDYHGSTYYNPSLKGRVTISVDTSKNQFSLKLSSVTAEDTAVYYCAREQYHWGLAWTGFDNWGQGTLVTVSS
VL: DIELTQPPSVSVAPGQTARISCSGDNLGHYYVSWYQQKPGQAPVLVIYDDSDRPSGIPERFSGSNSGNTATLTISGTQAEDEADYYCGAYAMHMTVFGGGTKLTVLG
Question: How did the Kd (human CD38 on cells [2]) turn out when B10 was run?
Answer: Its Kd is 5 nM.

B11: MOR03085 IgG1 (antibody, V domains shown)
VH: QVQLVQSGAEVKKPGASVKVSCKASGYTFTGYYINWVRQAPGQGLEWMGWIFPNGGSTGYAQKFQGRVTMTRDTSISTAYMELSSLRSEDTAVYYCARGNIFIFDYWGQGTLVTVSS
VL: DIVLTQPPSVSGAPGQRVTISCSGSSSNIGNNYVSWYQQLPGTAPKLLIYGDDQRPSGVPDRFSGSKSGTSASLAITGLQSEDEADYYCQSYGTFSSFVFGGGTKLTVLG
Question: For B11, which Kd (human CD38 on cells [2]) is on record?
Answer: Its Kd is 10 nM.

B12: MOR03127 Fab (Fab, V domains shown)
VH: QVQLVQSGAEVKKPGESLKISCKGSGYSFSTSWVGWVRQMPGKGLEWMGIIDPDISYTSYSPSFQGQVTISADKSISTAYLQWSSLKASDTAMYYCARYLMGLGYDVWGQGTLVTVSS
VL: DIALTQPASVSGSPGQSITISCTGTSSDVGAINYVSWYQQHPGKAPKLMIYDVNKRPSGVPDRFSGSKSGNTASLTISGLQAEDEADYYCGSYTMQVGSYVFGGGTKLTVLG
notes: Fab format
Question: Which Kd [15] does the source give for B12 here?
Answer: The Kd was 168 nM.

B13: MOR03088 Fab (Fab, V domains shown)
VH: QVQLVESGGGLVQPGGSLRLSCAASGFTFSSYAMNWVRQAPGKGLEWVSGISSWGSSTYYADSVKGRFTISRDNSKNTLYLQMNSLRAEDTAVYYCAREDGSYMTDYFAYWGQGTLVTVSS
VL: DIELTQPPSVSVAPGQTARISCSGDNIGHYYVSWYQQKPGQAPVLVIYSDSNRPSGIPERFSGSNSGNTATLTISGTQAEDEADYYCQSYNGTYVFGGGTKLTVLG
notes: Fab format
Question: How did the EC50 (human CD38 on cells [16]) turn out when B13 was run?
Answer: Its EC50 is 24.6 nM.

Question: Does B13 bind [17]?
Answer: Result: binds

Question: Does B13 bind [18]?
Answer: Result: binds

Question: What about the Kd [19] of the same binder?
Answer: Its Kd is 95 nM.

Question: What about the Kd [12] of the same binder?
Answer: The Kd was 41.4 nM.

Question: What about the Kd [13] of the same binder?
Answer: Its Kd is 2.15 nM.

B14: MOR03088 IgG (antibody, V domains shown)
VH: B13 VH
VL: B13 VL
Question: B14 was tested. Which “ELISA CD38 Fc-Fusion protein (% Reactivity of MOR03087)” value [3] did it give?
Answer: The value was 18%.

Question: What about the EC50 (human CD38 on cells [20]) of the same binder?
Answer: The EC50 was 15.3 nM.

Question: What about the EC50 (human CD38 on cells [21]) of the same binder?
Answer: The EC50 was 2.6 nM.

Question: What about the EC50 (human CD38 on cells [22]) of the same binder?
Answer: Its EC50 is 25.5 nM.

Question: What about the EC50 (human CD38 on cells [23]) of the same binder?
Answer: The EC50 was 24.6 nM.
